According to patent US6060451, “Thrombin inhibitors based on the amino acid sequence of hirudin” (The National Research Council of Canada, dated 2000):
Non-standard residues stand in square brackets, D forms with d.

Target: human α-thrombin (human, UniProt P00734)
Assay: inhibition of thrombin-mediated hydrolysis of Tosyl-Gly-Pro-Arg-AMC (fluorogenic amidolytic assay)

Row | Binder | Ki [nM]
1 | Ac-[dF]PR[(CH2)4CO][NH‑CH2‑CH:CH‑CH2‑CO]DFEPIPL-OH [P183 (SEQ ID NO:5)] | 300
2 | Ac-[dF]PR[(CH2)4CO][NH‑CH2‑CH:CH‑CH2‑CO][NH‑CH2‑CH:CH‑CH2‑CO]DFEPIPL-OH [P184 (SEQ ID NO:6) (BCH-1710)] | 3.5
3 | Ac-[dF]PR[(CH2)4CO][NH‑CH2‑CH:CH‑CH2‑CO][NH‑CH2‑CH:CH‑CH2‑CO][NH‑CH2‑CH:CH‑CH2‑CO]DFEPIPL-OH [P185 (SEQ ID NO:7)] | 3.2
